Results on 120 sequences are retold here after the supplement of paper PMC10126150.

± gives the standard deviation of the averaged measurements.

The test system of the data set is ATP. Description: switch fluorescence ratio, 500 uM ATP over buffer (Cy3 cluster intensity, sum of 5 cycles each) (fold (ratio)); higher = stronger signal-on switching upon ATP binding; sequences stand for … in TCGTCGGCAGCGTCAGATGTGTATAAGAGACAGTTTTTTTTTTTTTTTTTTTTTTTTT…TC. The settings on record: aptamer strand: ATP DNA aptamer (quencher-CACCTGGGGGAGTATTGCGGAGGAAGG + anchor), 100 nM annealed; ATP concentration: 500 uM. In outline: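 Imaging in selection buffer was followed by imaging after 15 min with 500 uM ATP at 22 °C, for Cy3-labelled switching-strand clusters annealed to 100 nM quencher-labelled ATP aptamer on a modified Illumina MiSeq flow-cell. Five of these buffer/ATP cycles ran, separated by NaOH stripping and re-annealing. The fluorescence ratio per cluster is summed target-cycle over summed buffer-cycle Cy3 intensity, averaged per switch-domain sequence; clusters outside 100-1000 RFU were removed.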
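Also: ATP exposure 15 min at 22 °C before imaging.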

For TGGGAAAACT, the switch fluorescence ratio stood at 1.07 ± 0.12.

In the case of TGGGAAAATT, the switch fluorescence ratio is 1 ± 0.033.

In the case of TGGGAAAGCT, the switch fluorescence ratio stood at 1.256 ± 0.0016.

As to TGGGAACACT, the switch fluorescence ratio amounted to 1.01 ± 0.033.

Consider TGGGAACTCG, for which the switch fluorescence ratio amounted to 0.99483 ± 0.00048.

Turning to TGGGAAGAGC, the switch fluorescence ratio worked out at 1.025 ± 0.0038.

TGGGAATGCG: the switch fluorescence ratio was 1.013 ± 0.0026.

Turning to TGGGAATTCC, the switch fluorescence ratio is 1 ± 0.011.

For the sequence TGGGAATTGA, the switch fluorescence ratio amounted to 0.9976 ± 0.0057.

For TGGGACAGGG, the switch fluorescence ratio worked out at 1.03 ± 0.088.

Regarding TGGGACATGC, the switch fluorescence ratio turned out to be 0.987 ± 0.0088.

Turning to TGGGACATTT, the switch fluorescence ratio turned out to be 1.04 ± 0.057.

Consider TGGGACCCGT, for which the switch fluorescence ratio worked out at 1.04 ± 0.038.

With TGGGACCGGC, the switch fluorescence ratio was found to be 0.98 ± 0.021.

Take TGGGACGATC: the switch fluorescence ratio came to 1.05 ± 0.028.

TGGGACGTTT: the switch fluorescence ratio was determined as 0.934 ± 0.046.

TGGGACTATT: the switch fluorescence ratio turned out to be 1.01 ± 0.076.

Regarding TGGGACTCGA, the switch fluorescence ratio is 0.991 ± 0.035.

For TGGGACTTAG, the switch fluorescence ratio was found to be 1.017 ± 0.0022.

Take TGGGACTTTT: the switch fluorescence ratio was determined as 1.01 ± 0.053.

With TGGGAGAAAC, the switch fluorescence ratio came out at 1.09 ± 0.091.

Regarding TGGGAGAGT, the switch fluorescence ratio was 1.011 ± 0.0034.

TGGGAGAGTG: the switch fluorescence ratio was found to be 0.994 ± 0.0055.

Regarding TGGGAGGAAT, the switch fluorescence ratio turned out to be 0.988 ± 0.037.

Turning to TGGGAGGAGT, the switch fluorescence ratio turned out to be 1 ± 0.048.

With TGGGAGGATT, the switch fluorescence ratio came to 1 ± 0.027.

In the case of TGGGAGGCAT, the switch fluorescence ratio was determined as 1.01 ± 0.027.

Take TGGGAGGGTC: the switch fluorescence ratio turned out to be 1.12 ± 0.14.

Take TGGGAGGGTT: the switch fluorescence ratio was determined as 1.12 ± 0.25.

Regarding TGGGAGTATA, the switch fluorescence ratio was found to be 1 ± 0.032.

As for TGGGAGTTGT, the switch fluorescence ratio worked out at 0.989 ± 0.011.

In the case of TGGGATAGGT, the switch fluorescence ratio worked out at 1.01 ± 0.06.

TGGGATAGTG: the switch fluorescence ratio came to 1 ± 0.046.

Take TGGGATATAT: the switch fluorescence ratio amounted to 0.954 ± 0.034.

Consider TGGGATATCT, for which the switch fluorescence ratio is 1 ± 0.023.

Consider TGGGATCCAT, for which the switch fluorescence ratio came to 0.972 ± 0.015.

For the sequence TGGGATGAAG, the switch fluorescence ratio came out at 0.982 ± 0.01.

With TGGGATGCTT, the switch fluorescence ratio worked out at 0.981 ± 0.011.

For TGGGATGGGC, the switch fluorescence ratio stood at 1.05 ± 0.14.

For the sequence TGGGATGGGT, the switch fluorescence ratio turned out to be 1.02 ± 0.092.

Turning to TGGGATGTG, the switch fluorescence ratio turned out to be 0.9906 ± 0.0049.

Turning to TGGGATTAGG, the switch fluorescence ratio came out at 0.969 ± 0.03.

With TGGGATTCCT, the switch fluorescence ratio was 1.03 ± 0.073.

Take TGGGATTGTA: the switch fluorescence ratio is 0.987 ± 0.024.

For TGGGCAATGG, the switch fluorescence ratio came out at 1.833 ± 0.018.

Regarding TGGGCAGGGC, the switch fluorescence ratio came to 1.04 ± 0.058.

As to TGGGCCATGT, the switch fluorescence ratio is 0.9791 ± 0.0065.

Take TGGGCCTTGT: the switch fluorescence ratio is 1.023 ± 0.0033.

For the sequence TGGGCGGTA, the switch fluorescence ratio was 0.963 ± 0.026.

As to TGGGCGTAG, the switch fluorescence ratio turned out to be 0.993 ± 0.011.

As to TGGGCGTTGC, the switch fluorescence ratio was determined as 1.01 ± 0.018.

With TGGGCTAATT, the switch fluorescence ratio was 1.02 ± 0.04.

With TGGGCTACTG, the switch fluorescence ratio was found to be 1.04 ± 0.04.

As to TGGGCTGGGG, the switch fluorescence ratio was 1.04 ± 0.023.

Regarding TGGGCTTCAT, the switch fluorescence ratio came to 0.998 ± 0.028.

Turning to TGGGCTTTAG, the switch fluorescence ratio turned out to be 0.967 ± 0.041.

Consider TGGGGAAAAT, for which the switch fluorescence ratio was 1.033 ± 0.0065.

Regarding TGGGGAAAGC, the switch fluorescence ratio is 0.983 ± 0.014.

TGGGGAAGTG: the switch fluorescence ratio worked out at 0.987 ± 0.025.

On to TGGGGAATCG, for which the switch fluorescence ratio stood at 1.01 ± 0.046.

TGGGGACAAT: the switch fluorescence ratio is 0.987 ± 0.018.

Turning to TGGGGACCCA, the switch fluorescence ratio stood at 0.991 ± 0.018.

Turning to TGGGGACCGT, the switch fluorescence ratio came out at 1 ± 0.03.

On to TGGGGACGAC, for which the switch fluorescence ratio came out at 1.02 ± 0.063.

With TGGGGACTAT, the switch fluorescence ratio stood at 1.02 ± 0.012.

Regarding TGGGGAGTAA, the switch fluorescence ratio amounted to 1.015 ± 0.0092.

As to TGGGGAGTGT, the switch fluorescence ratio is 0.9849 ± 0.0076.

For TGGGGATAAT, the switch fluorescence ratio stood at 1.01 ± 0.028.

As for TGGGGATAGT, the switch fluorescence ratio stood at 0.968 ± 0.018.

Consider TGGGGATATA, for which the switch fluorescence ratio came out at 1.029 ± 0.0093.

On to TGGGGATATT, for which the switch fluorescence ratio was 0.9965 ± 0.0016.

On to TGGGGATGTA, for which the switch fluorescence ratio worked out at 0.976 ± 0.014.

Turning to TGGGGCAAAT, the switch fluorescence ratio was found to be 1.01 ± 0.034.

Take TGGGGCAATT: the switch fluorescence ratio came out at 1.1 ± 0.06.

On to TGGGGCACCC, for which the switch fluorescence ratio turned out to be 0.985 ± 0.01.

With TGGGGCATCG, the switch fluorescence ratio is 1 ± 0.029.

Regarding TGGGGCCGCG, the switch fluorescence ratio turned out to be 1.048 ± 0.0092.

Turning to TGGGGCGCCG, the switch fluorescence ratio stood at 1.13 ± 0.18.

Take TGGGGCGCTT: the switch fluorescence ratio turned out to be 1 ± 0.033.

For TGGGGCTATA, the switch fluorescence ratio was found to be 0.995 ± 0.037.

On to TGGGGCTTTA, for which the switch fluorescence ratio stood at 1.06 ± 0.031.

As to TGGGGGAAAT, the switch fluorescence ratio stood at 1.25 ± 0.74.

Take TGGGGGAAGC: the switch fluorescence ratio was determined as 0.984 ± 0.026.

With TGGGGGACTG, the switch fluorescence ratio is 1.05 ± 0.054.

Regarding TGGGGGAGCA, the switch fluorescence ratio came out at 0.9811 ± 0.0094.

Take TGGGGGATCA: the switch fluorescence ratio was found to be 0.978 ± 0.029.

For the sequence TGGGGGATCT, the switch fluorescence ratio was determined as 1 ± 0.038.

In the case of TGGGGGCGGA, the switch fluorescence ratio was found to be 1.01 ± 0.032.

In the case of TGGGGGCGTA, the switch fluorescence ratio was determined as 0.9641 ± 0.0025.

Consider TGGGGGCTTT, for which the switch fluorescence ratio stood at 0.99 ± 0.023.

In the case of TGGGGGGATT, the switch fluorescence ratio came out at 1.01 ± 0.045.

As for TGGGGGGCCT, the switch fluorescence ratio turned out to be 0.991 ± 0.02.

As for TGGGGGGCTA, the switch fluorescence ratio amounted to 1.02 ± 0.056.

As for TGGGGGGGAA, the switch fluorescence ratio is 0.999 ± 0.021.

For the sequence TGGGGGGGCA, the switch fluorescence ratio turned out to be 1 ± 0.012.

TGGGGGGGGG: the switch fluorescence ratio was determined as 1.02 ± 0.079.

As for TGGGGGGTAT, the switch fluorescence ratio is 1 ± 0.03.

With TGGGGGTAAG, the switch fluorescence ratio is 0.989 ± 0.03.

Turning to TGGGGGTATG, the switch fluorescence ratio amounted to 1 ± 0.02.

As for TGGGGGTGCC, the switch fluorescence ratio stood at 0.9758 ± 0.0037.

For TGGGGGTGTG, the switch fluorescence ratio was 1.04 ± 0.082.

As to TGGGGGTTAT, the switch fluorescence ratio came out at 0.993 ± 0.042.

In the case of TGGGGGTTCT, the switch fluorescence ratio is 1.02 ± 0.057.

On to TGGGGTAAAA, for which the switch fluorescence ratio was found to be 0.99 ± 0.0091.

For TGGGGTAAAT, the switch fluorescence ratio was 1.01 ± 0.017.

For the sequence TGGGGTAGAG, the switch fluorescence ratio turned out to be 0.97 ± 0.041.

As for TGGGGTAGC, the switch fluorescence ratio amounted to 0.9979 ± 0.0088.

As for TGGGGTAGCC, the switch fluorescence ratio came to 0.932 ± 0.029.

Take TGGGGTAGCG: the switch fluorescence ratio was determined as 0.998 ± 0.043.

As to TGGGGTAGCT, the switch fluorescence ratio turned out to be 0.997 ± 0.015.

With TGGGGTAGGC, the switch fluorescence ratio came out at 1.02 ± 0.034.

In the case of TGGGGTCAGC, the switch fluorescence ratio came out at 1.001 ± 0.0097.

For the sequence TGGGGTCGCT, the switch fluorescence ratio came to 0.9829 ± 0.001.

On to TGGGGTTAAG, for which the switch fluorescence ratio amounted to 0.977 ± 0.025.

As to TGGGGTTAAT, the switch fluorescence ratio was found to be 0.997 ± 0.028.

With TGGGGTTAGT, the switch fluorescence ratio came out at 0.979 ± 0.014.

For the sequence TGGGGTTATT, the switch fluorescence ratio was found to be 0.974 ± 0.0098.

For TGGGGTTCAG, the switch fluorescence ratio amounted to 1.01 ± 0.019.

Consider TGGGGTTCTT, for which the switch fluorescence ratio stood at 0.993 ± 0.034.

Take TGGGGTTGCG: the switch fluorescence ratio worked out at 0.981 ± 0.032.
